The values that follow come from paper PMC7948422, “Repurposing p97 inhibitors for chemical modulation of the bacterial ClpB–DnaK bichaperone system” (The Journal of Biological Chemistry, 2020).

*: point of attachment. FITC = O=C1OC2(c3ccc(O)cc3Oc3cc(O)ccc32)c2ccc(NC(=S)*)cc21; Ahx = NCCCCCC(=O)O

This assay has as its target T1, full-length E. coli DnaK (residues 1–638) (Escherichia coli, UniProt P0A6Y8 1-638).
T1 construct: DnaK (Hsp70), Escherichia coli, residues 1-638; cloned from pTTQ19dnaK+ into pET28a; source: E. coli BL21(DE3), purified (Q Sepharose, DEAE-Sephacel, Superdex 200)
The assay can be described thus: fluorescence polarisation; fluorescence anisotropy of FITC-B2 with 1-μM DnaK in buffer C (50-mM Tris-HCl pH 7.4, 20-mM MgCl2, 1-mM EDTA, 0.5-mM TCEP), DBeQ solutions in DMSO added, room temperature, 30-min incubation. Conditions: both partners purified.

T1 sequence (P0A6Y8 whole entry, the tested form may be a part): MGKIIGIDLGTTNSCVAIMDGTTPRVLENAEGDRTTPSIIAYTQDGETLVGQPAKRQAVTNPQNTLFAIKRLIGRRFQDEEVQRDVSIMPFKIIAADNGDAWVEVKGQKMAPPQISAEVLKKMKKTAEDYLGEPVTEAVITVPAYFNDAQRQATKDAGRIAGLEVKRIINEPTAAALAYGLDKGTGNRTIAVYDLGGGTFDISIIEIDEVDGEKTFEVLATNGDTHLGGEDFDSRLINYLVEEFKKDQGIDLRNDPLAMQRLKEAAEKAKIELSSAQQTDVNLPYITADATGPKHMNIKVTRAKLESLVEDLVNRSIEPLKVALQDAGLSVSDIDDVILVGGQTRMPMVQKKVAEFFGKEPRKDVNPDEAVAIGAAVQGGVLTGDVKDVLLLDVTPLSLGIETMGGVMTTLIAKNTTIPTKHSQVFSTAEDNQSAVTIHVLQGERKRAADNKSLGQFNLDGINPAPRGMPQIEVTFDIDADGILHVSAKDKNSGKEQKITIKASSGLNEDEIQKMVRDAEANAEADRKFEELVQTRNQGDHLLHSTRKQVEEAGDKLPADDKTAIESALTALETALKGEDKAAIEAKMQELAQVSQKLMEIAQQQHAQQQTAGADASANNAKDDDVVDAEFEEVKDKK

B1: FITC-B2 (FITC-Ahx-QRKLFFNLRKTKQRLGWFNQ-NH2) (peptide)
peptide: {FITC-Ahx}-QRKLFFNLRKTKQRLGWFNQ-NH2
SMILES: CC(C)C[C@H](NC(=O)[C@H](CCCNC(=N)N)NC(=O)[C@H](CCC(N)=O)NC(=O)[C@H](CCCCN)NC(=O)[C@@H](NC(=O)[C@H](CCCCN)NC(=O)[C@H](CCCNC(=N)N)NC(=O)[C@H](CC(C)C)NC(=O)[C@H](CC(N)=O)NC(=O)[C@H](Cc1ccccc1)NC(=O)[C@H](Cc1ccccc1)NC(=O)[C@H](CC(C)C)NC(=O)[C@H](CCCCN)NC(=O)[C@H](CCCNC(=N)N)NC(=O)[C@H](CCC(N)=O)NC(=O)CCCCCNC(=S)Nc1ccc2c(c1)C(=O)OC21c2ccc(O)cc2Oc2cc(O)ccc21)[C@@H](C)O)C(=O)NCC(=O)N[C@@H](Cc1c[nH]c2ccccc12)C(=O)N[C@@H](Cc1ccccc1)C(=O)N[C@@H](CC(N)=O)C(=O)N[C@@H](CCC(N)=O)C(N)=O
notes: peptide B2, substrate-mimicking peptide; also called FITC-labeled peptide B2; substrate-mimicking peptide; source: obtained as described before (65)
Take B1: the binding result is reported as “binds”.
